Test system: U2OS cells
Test: Cellular uptake of fluorescent probes, live-cell microscopy
Assay type: cell-based, human
Settings: 1–5 μM, 10–60 min
Description: For studies of the general internalization properties of ARCs, the cells were seeded at the density of 12,000–25,000 cells per well onto an Ibidi μ-plate (96-well; Ibidi GmbH, Planegg, Germany). After 24 h incubation in growth medium, the cells were treated for 10 min, 30 min, or 1 h with dilutions of compounds 6, 7, 8, or ARC-2090 (5 μM, 2.5 μM, or 1 μM final concentration) in the phenol red-free DMEM/Ham’s F12 medium supplemented with 2% ccFBS and 2 mM glutamine. Next, cells were washed twice with PBS, and imaging medium (MEMO + Supplement A 1:100) was applied subsequently. Cells were imaged with Cytation 5 wide-field microscope (BioTek; Winooski, VT, USA) using 20× air objective and the following settings: for Cy5, 623 nm LED (intensity: 2) and Cy5 filter cube (685 nm) with 104 ms integration time and detector gain value of 2; for TAMRA, 523 nm LED (intensity: 7) and RFP filter cube (593 nm) with 252 ms integration time and detector gain value of 16; for bright-field, white LED with intensity 6, 186 ms integration time and detector gain value of 15. Four independent experiments were performed.

In the case of `CN(C)c1ccc2c(c1)Oc1cc(N(C)C)ccc1C21OC(=O)c2cc(C(=O)NCCCC[C@@H](NC(=O)[C@@H](CCCNC(=N)N)NC(=O)CNC(=O)[C@@H](CCCNC(=N)N)NC(=O)[C@@H](CCCNC(=N)N)NC(=O)CCCCc3cn(Cc4nc5c(sc6ccc(Br)cc65)c(=O)[nH]4)nn3)C(N)=O)ccc21` [Compound 8, BBTP-Tap-(D-Arg)2-Gly-D-Arg-[D-Lys(5-TAMRA)]-NH2], the “ability to cross the plasma membrane / internalization” value was “much lower internalization efficiency”.
